For assay [1], the target named is T1, human TREM2 (hTREM2) on cells (human, UniProt Q9NZC2 19-230).
T1 sequence (looked up): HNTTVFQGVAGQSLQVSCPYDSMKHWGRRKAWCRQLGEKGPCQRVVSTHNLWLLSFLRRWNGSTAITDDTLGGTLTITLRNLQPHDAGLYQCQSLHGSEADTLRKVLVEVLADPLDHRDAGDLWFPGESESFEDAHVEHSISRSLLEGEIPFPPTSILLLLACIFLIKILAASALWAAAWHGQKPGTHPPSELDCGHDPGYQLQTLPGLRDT
In words: cell-based or functional assay.

The target in assay [2] is T2, extracellular domain of human TREM2 (ecTREM2), Hölzel Diagnostika 11084-H08H (human, UniProt Q9NZC2 19-174).
T2 construct: extracellular domain; also called human ecTREM2; ecTREM2 domain
T2 sequence (looked up): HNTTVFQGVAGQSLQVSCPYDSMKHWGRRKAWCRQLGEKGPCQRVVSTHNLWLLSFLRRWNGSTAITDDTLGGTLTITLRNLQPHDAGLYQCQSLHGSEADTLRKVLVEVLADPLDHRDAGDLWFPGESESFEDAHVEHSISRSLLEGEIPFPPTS
The assay can be described thus: ELISA, coated ecTREM2. How it is done:
(§1) Anti-TREM2 antibody binding to the extracellular domain of TREM2 (ecTREM2) or to the human or mouse peptide fragment of the stalk region of TREM2 were quantified in an ELISA assay. All procedures were performed at room temperature and incubations were done on a microtiter plate shaker. ELISA plate was coated with 60 μl/well (final concentration 0.5 μg/ml) of the according ligand (ecTREM2 (Hölzel Diagnostika, 11084-H08H) or human or mouse TREM2 peptide fragment) in coating buffer (NaHCO₃) for 1 h. The coated plate was washed three times with PBS-T (PBS, 0.1% Tween-20), blocked with 100 μl/well of blocking solution (PBS-T, 3% milk powder) for 1 h, and washed again. Antibodies were pre-diluted 1:10 in PBS and set to a concentration of 1 μg/ml. A dilution series was performed with dilution steps of 1:3 and 1:10. 50 μl/well of diluted AB were transferred to the blocked ELISA plate and incubated for 1 h. The plate was washed three times with PBS-T and incubated with anti-human-Strep-POD (Jackson Immunoresearch, #109-035-098) diluted in PBS-T 1:10000 for 1 h. After washing three times, bound POD was detected by incubation with 100 μl/well of TMB substrate (Thermo Scientific, #34029) until a maximal optical density (OD) of about 1 to 2 was reached. Finally, the colorimetric reaction was stopped with 100 μl/well stopping solution (1M H₂SO₄) and the OD determined at a wavelength of 450 nm with a reference wavelength of 595 nm in a plate reader (SpectraMax i3xl).
(§2) We determined the binding affinity of all antibody clones including M07 as well as of the control antibody H01 and negative control (not shown here), to ecTREM2 by an ELISA-based binding assay (FIG. 2).
For orientation: An ELISA detects its analyte on a solid surface through an enzyme-linked reagent.

For assay [3], the target named is T3, epitope peptide from the human TREM2 stalk region (DAGDLWFPG) (human).
T3 construct: also called human TREM2 peptide fragment
T3 peptide: DAGDLWFPG
The assay can be described thus: ELISA, coated epitope peptide SEQ ID NO: 16. The protocol:
as §1

For assay [4], the target named is T1, human TREM2 (hTREM2) on cells. In words: cell-based or functional assay. The source holds these as a separate data set.
For assay [5] the target is unchanged. In words: printed with the p-SYK titration curve of M07 on HEK293-Flp-In hTREM2/hDAP12 cells (FIG. 6B); how it was derived is not told. The protocol: Phosphorylated SYK (p-Syk) was measured using the AlphaLISA SureFire Ultra p-SYK Assay Kit (PerkinElmer, ALSU-PSYK-A-HV) following the manufacturer's instructions. Briefly, HEK293 cells overexpressing human TREM2 and human DAP12 were plated in 50 μl media at a density of 50,000 cells/well in a 96-well plate and incubated overnight at 37° C. in a cell culture incubator. The next day medium was removed and 50 μl of antibody diluted in medium was added to the cells. Following an incubation for 5 min at 37° C. treatment solutions were removed and cells were lysed with 50 μl lysis buffer supplemented with phosphatase inhibitor (VWR) for 10 min on a plate shaker (~350 rpm). 30 μl of lysate were then used for further incubation steps with acceptor and donor beads (each for 1 h) following analysis using a CLARIOstar^Plus Plate Reader (BMG Labtech).

The target of assay [6] is T2, extracellular domain of human TREM2 …. In words: ELISA, coated ecTREM2 (0.5 µg/ml), antibody dilution series. The protocol: as §1, with “A dilution series was performed with dilution steps of 1:3 and 1:10. 50 μl/well of diluted AB were transferred to the blocked ELISA plate and incubated for 1 h. The plate was washed three times with PBS-T and incubated with anti-human-Strep-POD (Jackson Immunoresearch, #109-035-098) diluted in PBS-T 1:10000 for 1 h.” left out
as §2

Assay [7] deals with T3, epitope peptide from the human TREM2 …. The assay can be described thus: ELISA, coated epitope peptide (0.5 µg/ml), antibody dilution series. The protocol:
as §1, with “The plate was washed three times with PBS-T and incubated with anti-human-Strep-POD (Jackson Immunoresearch, #109-035-098) diluted in PBS-T 1:10000 for 1 h.” left out

By EC50 is commonly meant the concentration at which the effect is half-maximal. Lower therefore signals higher potency in that assay. The term Kd denotes the equilibrium constant for the complex coming apart.

Changes are numbered by the printed parent chain.

B1: antibody H08 (clone H08), fully human IgG1-LALA (antibody, V domains shown)
VH: EVQLVQSGGGLVQPGGSLRLSCAASGFTFSSYAMSWVRQAPGKGLEWVSAISGSGGSTYYADSVKGRFTISRDNAKRSLYLQMNDLRVEDTAVYYCARTRTNVFDFWGQGTMVTVSS
VL: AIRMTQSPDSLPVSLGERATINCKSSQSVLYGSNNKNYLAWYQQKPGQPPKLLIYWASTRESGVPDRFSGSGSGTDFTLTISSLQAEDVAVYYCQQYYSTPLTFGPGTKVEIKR
On to B1, for which the “Mean values of fold increase over baseline (p-SYK AlphaLISA, 40 µg/ml antibody, HEK293-Flp-In hTREM2/hDAP12)” value in assay [1] was 3.22 fold. Also, the EC50 in assay [2] amounted to 0.19 nM; in assay [3], 0.832 nM.

B2: antibody M07 (clone M07), fully human anti-hTREM2 IgG1-LALA-TFN (antibody, V domains shown)
VH: EVQLLESGGGLVQPGGSLRLTCAASGFTFSSYAMSWVRQAPGKGLEWVSVINGRGSNTYYADSVKGRFTITRDNSKNTLYLEMNSLRAEDTAVYYCARVRAYSGPSYGFDYWGQGTLVTVSS
VL: DIQLTQSPLSLSASAGDRVTITCRASQSIRDYLGWYQQKPGKAPKLLIYAASKLQSGVPSRFSGSGSGTDFTLTISSLQPEDFATYYCQQSYHTPPFTFGQGTKVEIKR
notes: leaders are cleaved off; also called anti-hTREM2 antibody M07; MO7
For B2, the “Mean values of fold increase over baseline (p-SYK AlphaLISA, 40 µg/ml antibody, HEK293-Flp-In hTREM2/hDAP12)” value in assay [1] was determined as 36.1 fold. In assay [4], the “EC50 of p-SYK signaling titration in HEK293-Flp-In hTREM2/hDAP12” value is 4.39 nM and the “SYK phosphorylation, fold increase” value is at most 60 fold. Besides, in assay [5], binding was characterised by a dissociation constant (Kd) of 2.19 nM. Also, a half-maximal response in assay [2] (EC50) required 0.204 nM. Further, in assay [3], a half-maximal effect (EC50) was put at 0.335 nM.

B3: antibody M03 (clone M03), fully human IgG1-LALA (antibody, V domains shown)
VH: EVQLVQSGGGLVQPGGSLRLSCAASGFTFSSYGITWVRQAPGKGLEWVSFISGGGSYTYYADSVKGRFTISRDNAKRTLYLQMNSLRAEDTAVYYCARSGRAYFDYWGQGTLVTVSS
VL: DIRLTQPPSVSGAPGQRVTISCSGSSSNIGSLFVSWYQQLPGTAPKLLIYSNSQHPSGVPDRFSGSKSGTSASLAITGLQAEDEADYYCSAYDQFSNSVVFGGGTKLTVLG
With B3, the “Mean values of fold increase over baseline (p-SYK AlphaLISA, 40 µg/ml antibody, HEK293-Flp-In hTREM2/hDAP12)” value in assay [1] is 9.39 fold. For the same molecule, the half-maximal effective concentration (EC50) came to 0.35 nM in assay [2] and 0.329 nM in assay [3].

B4: antibody M05 (clone M05), fully human IgG1-LALA (antibody, V domains shown)
VH: EVQLLESGGGLVQPGGSLRLSCAASGFTFSSNAMTWVRQAPGKGLEWVSVIGSSGSYTYYADSVKGRFTISRDNSKNTLYLQMNSLRAEDTAVYYCARSGTTGFDYWGQGTLVTVSS
VL: B3 VL with R3V, L4M, G12V, A13T, S23R, G24S, G111R
Consider B4, for which, in assay [1], the “Mean values of fold increase over baseline (p-SYK AlphaLISA, 40 µg/ml antibody, HEK293-Flp-In hTREM2/hDAP12)” value is 1.07 fold. For the same molecule, the binding result in assay [6] and in assay [7] was “no binding” throughout.

The values above are taken from patent US20260226160A1 (ISAR BIOSCIENCE, published 2026).
